Laboratory results published in patent publication US20040260064.

Tests used:
[1] = tested on: murine MSP C677A analog
[2] = tested on: human MSP C672A analog
[3] = tested on: recombinant human macrophage stimulating protein (MSP)
[4] = tested on: recombinant murine macrophage stimulating protein (MSP)

human kallikrein (Enzyme System Products), sequence (chain, as listed by the source): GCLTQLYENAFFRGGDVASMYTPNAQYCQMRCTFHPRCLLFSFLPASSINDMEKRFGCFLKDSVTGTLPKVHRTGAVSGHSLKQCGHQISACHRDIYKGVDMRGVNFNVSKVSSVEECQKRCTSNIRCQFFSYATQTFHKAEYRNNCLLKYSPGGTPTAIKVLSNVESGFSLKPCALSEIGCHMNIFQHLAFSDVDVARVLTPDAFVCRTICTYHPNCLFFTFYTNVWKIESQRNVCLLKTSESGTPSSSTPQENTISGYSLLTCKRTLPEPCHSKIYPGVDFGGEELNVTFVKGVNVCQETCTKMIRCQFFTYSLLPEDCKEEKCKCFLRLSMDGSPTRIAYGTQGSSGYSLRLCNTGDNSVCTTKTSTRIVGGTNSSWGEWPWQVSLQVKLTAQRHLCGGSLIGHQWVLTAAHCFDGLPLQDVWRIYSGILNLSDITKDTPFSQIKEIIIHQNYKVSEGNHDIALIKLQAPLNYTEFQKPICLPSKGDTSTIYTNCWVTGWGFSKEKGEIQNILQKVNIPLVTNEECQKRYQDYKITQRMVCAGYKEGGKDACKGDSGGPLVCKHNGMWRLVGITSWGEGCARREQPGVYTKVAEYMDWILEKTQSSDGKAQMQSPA
human MSP C672A analog, sequence (chain, as listed by the source C672A): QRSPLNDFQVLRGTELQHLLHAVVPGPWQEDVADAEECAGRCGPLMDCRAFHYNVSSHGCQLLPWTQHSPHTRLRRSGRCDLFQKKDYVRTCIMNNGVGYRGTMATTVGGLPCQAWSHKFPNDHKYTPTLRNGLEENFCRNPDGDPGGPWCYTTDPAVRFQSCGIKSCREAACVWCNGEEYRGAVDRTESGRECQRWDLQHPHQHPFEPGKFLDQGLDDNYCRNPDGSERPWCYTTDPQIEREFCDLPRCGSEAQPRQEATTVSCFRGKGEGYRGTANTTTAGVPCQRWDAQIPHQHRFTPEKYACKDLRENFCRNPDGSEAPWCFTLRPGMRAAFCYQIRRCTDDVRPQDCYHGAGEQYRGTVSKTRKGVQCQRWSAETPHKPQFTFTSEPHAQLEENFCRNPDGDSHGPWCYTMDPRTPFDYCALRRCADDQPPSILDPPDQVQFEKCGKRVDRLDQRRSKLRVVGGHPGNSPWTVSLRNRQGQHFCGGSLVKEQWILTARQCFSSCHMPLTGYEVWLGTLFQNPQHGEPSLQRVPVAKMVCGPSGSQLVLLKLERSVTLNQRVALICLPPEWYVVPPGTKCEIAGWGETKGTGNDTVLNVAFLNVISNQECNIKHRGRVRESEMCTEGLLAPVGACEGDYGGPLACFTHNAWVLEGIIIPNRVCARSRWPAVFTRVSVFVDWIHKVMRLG
murine MSP C677A analog, sequence (chain, as listed by the source C677A): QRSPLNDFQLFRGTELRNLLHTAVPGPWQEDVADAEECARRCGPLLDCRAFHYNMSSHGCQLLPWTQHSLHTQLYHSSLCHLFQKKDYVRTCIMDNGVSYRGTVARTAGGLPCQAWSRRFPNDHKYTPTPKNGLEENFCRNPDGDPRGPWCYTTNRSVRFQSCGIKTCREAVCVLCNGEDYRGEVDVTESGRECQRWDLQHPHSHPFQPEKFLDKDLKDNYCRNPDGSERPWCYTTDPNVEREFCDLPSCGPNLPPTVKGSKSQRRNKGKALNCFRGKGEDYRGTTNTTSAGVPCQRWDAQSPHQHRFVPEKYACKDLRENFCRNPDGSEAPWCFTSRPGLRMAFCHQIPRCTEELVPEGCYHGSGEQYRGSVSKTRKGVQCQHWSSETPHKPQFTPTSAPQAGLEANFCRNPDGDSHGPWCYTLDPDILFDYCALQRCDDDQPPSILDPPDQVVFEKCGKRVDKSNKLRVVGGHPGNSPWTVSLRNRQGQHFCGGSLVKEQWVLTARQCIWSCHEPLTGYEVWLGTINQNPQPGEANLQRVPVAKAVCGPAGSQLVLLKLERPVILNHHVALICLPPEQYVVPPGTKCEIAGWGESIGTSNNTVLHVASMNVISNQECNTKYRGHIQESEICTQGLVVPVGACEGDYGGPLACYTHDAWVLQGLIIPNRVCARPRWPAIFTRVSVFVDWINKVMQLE

For “human kallikrein (Enzyme System Products)”, the “cleavage of proMSP analog seen by SDS-PAGE under reducing conditions” value [1] was “Kallikrein treatment efficiently cleaves proMSP or proMSP analog between the α and β subunits”, the “cleavage of proMSP analog seen by SDS-PAGE under reducing conditions” value [2] was “Kallikrein treatment efficiently cleaves proMSP or proMSP analog between the α and β subunits” and the “cleavage of proMSP seen by SDS-PAGE under reducing conditions” value [3] was “Kallikrein treatment efficiently cleaves proMSP or proMSP analog between the α and β subunits”. The “cleavage of proMSP seen by SDS-PAGE under reducing conditions” value [4] was “Kallikrein treatment efficiently cleaves proMSP or proMSP analog between the α and β subunits”.
